Results as given in patent US20240263193A1 (published 2024).

T1: CP5-46-4D5E
T1 peptide: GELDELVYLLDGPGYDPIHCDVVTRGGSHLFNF


What was measured:
[1] = biological target: T1, CP5-46-4D5E; assay: cell-based or functional assay
[2] = biological target: EGFP(R96M)-AlfaTag; assay: cell-based or functional assay

Binder	fold change of the grazoprevir treated iADAR compared to DMSO treated, unmutated Pep-NS3 system, 4xUAG MS2 reporter, HEK293FT, flow cytometry (intramolecular pair) [1]	ratio of mNeonGreen to mCherry (mNG/mCh), 2 µM grazoprevir against no drug, HEK cells, microscopy (intramolecular pair) [1]	median relative fluorescence of the 4xUAG-MS2 reporter, A-1331852 plus EGFP(R96M)-AlfaTag against A-1331852 alone, HEK293FT, flow cytometry [2]
NS4A/NS3 (Genotype 1B) (enzyme) GSVVIVGRIILSGSGSITAYSQQTRGLLGCIITSLTGRDKNQVEGEVQVVSTATQSFLATCVNGVCWTVYHGAGSKTLAGPKGPITQMYTNVDQDLVGWQAPPGARSLTPCTCGSSDLYLVTRHADVIPVRRRGDSRGSLLSPRPVSYLKGSSGGPLLCPSGHAVGIFRAAVCTRGVAKAVDFVPVESMETTMRS	~31 fold	~18 fold	
ALFA-Bcl dual input iADAR (other) MASNFTQFVLVDNGGTGDVTVAPSNFANGIAEWISSNSRSQAYKVTCSVRQSSAQNRKYTIKVEVPKGAWRSYLNMELTIPIFATNSDCELIVKAMQGLLKDGNPIPSAIAANSGIYGGSGSGAGSGSPAGGGAPGSGGGSTGAPPNLWAAQRYGRELRRMSDEFVDSFKKASQLHLPQVLADAVSRLVLGKFGDLTDNFSSPHARRKVLAGVVMTTGTDVKDAKVISVSTGTKCINGEYMSDRGLALNDCHAEIISRRSLLRFLYTQLELYLNNKDDQKRSIFQKSERGGFRLKENVQFHLYISTSPCGDARIFSPHEPILEEPAASGSGPGRLEEELRRRLSPGTGDRHPNRKARGQLRTKIESGQGTIPVRSNASIQTWDGVLQGERLLTMSCSDKIARWNVVGIQGSLLSIFVEPIYFSSIILGSLYHGDHLSRAMYQRISNIEDLPPLYTLNKPLLSGISNAEARQPGKAPNFSVNWTVGDSAIEVINATTGKDELGRASRLCKHALYCRWMRVHGKVPSHLLRSKITKPNVYHESKLAAKEYQAAKARLFTAFIKAGLGAWVEKPTEQDQYSLTGSGGTAEVQLQESGGGLVQPGGSLRLSCTASGVTISALNAMAMGWYRQAPGERRVMVAAVSERGNAMYRESVQGRFTVTRDFTNKMVSLQMDNLKPEDTAVYYCHVLEDRVDSFHDYWGQGTQVTVSSGAGSGASSNRELVVDFLSYKLSQKGYSWSQFSDVEENRTEAPEGTESEMETPSAINGNPSWHLADSPAVNGATGHSSSLDAREVIPMAAVKQALREAGDEFELRYRRAFSDLTSQLHITPGTAYQSFEQVVNELFRDGVNWGRIVAFFSFGGALCVESVDKEMQVLVSRIAAWMATYLNDHLEPWIQENGGWDTFVELYGNNGSSELIKENMHMKLYMEGTVDNHHFKCTSEGEGKPYEGTQTMRIKVVEGGPLPFAFDILATSFLYGSKTFINHTQGIPDFFKQSFPEGFTWERVTTYEDGGVLTATQDTSLQDGCLIYNVKIRGVNFTSNGPVMQKKTLGWEAFTETLYPADGGLEGRNDMALKLVGGSHLIANIKTTYRSKKPAKNLKMPGVYYVDYRLERIKEANNETYVEQHEVAVARYCDLPSKLGHKLN			~110 fold
